Data on one substance can be found in PMC5757785.

For this assay, the target named is FlAsH-tagged Lys6-linked diubiquitin (UniProt P0CG47). As to the kind of experiment: fluorescence polarisation. For orientation: Polarisation of emitted light reports the rotation of a fluorescent probe.

Broadly, the Kd is the equilibrium constant for the complex coming apart. A lower Kd goes with a tighter complex. For the substance “USP30^c13i (inactive USP30 construct 13, C77A) (from UniProt Q70CQ3 1-517) (enzyme)”, the Kd was 4 µM.
